Publication PMC11914125

Assays:
[1] = biological target: DNA polymerase beta (full-length) (Homo sapiens) (UniProt P06746); test: EMSA; details: EMSA: 20 nM NCP, 20 mM HEPES pH 7.5, 100 mM NaCl, 1 mM EDTA, 1 mM DTT, 0.1 mg/ml BSA, 20 min, 4 °C, 5% native PAGE, 0.2x TBE
[2] = biological target: Pol beta lyase domain (8 kDa) (rat) (UniProt P06766); test: EMSA; details: EMSA: 20 nM NCP, 20 mM HEPES pH 7.5, 100 mM NaCl, 1 mM EDTA, 1 mM DTT, 0.1 mg/ml BSA, 20 min, 4 °C, 5% native PAGE, 0.2x TBE

Sequence | Kd ([1]; 5'-phosphate on strand 3) [nM] | other results
ATCGGATGTATATATCTGACACGTGCCTGGAGACTAGGGAGTAATCCCCTTGGCGGTTAAAACGCGGGGGACAGCGCGTACGTGCGTTTAAGCGGTGCTAGAGCTGTCTACGACCAATTGAGCGGCCTCGGCACCGGGATTCTCGAT / ATCGAGAATCCCGGTGCCGAGGCCGCTCAATTGGTCGTAGACAGCTCTAGCACCGCTTAAACGCACGTACGCGCTGTCCCCCGCGTTTTAACCGCCAAGGGGATTACTCCCTA / TCTCCAGGCACGTGTCAGATATATCCATCCGAT [Gap-NCP-4.5+4] | 94 | –
ATCGGATGTATATATCTGACACGTGCCTGGAGACTAGGGAGTAATCCCCTTGGCGGTTAAAACGCGGGGGACAGCGCGTACGTGCGTTTAAGCGGTGCTAGAGCTGTCTACGACCAATTGAGCGGCCTCGGCACCGGGATTCTCGAT / ATCGAGAATCCCGGTGCCGAGGCCGCTCAATTGGTCGTAGACAGCTCTAGCACCGCTTAAACGCACGTACGCGCTGTCCCCCGCGT / TTAACCGCCAAGGGGATTACTCCCTAGTCTCCAGGCACGTGTCAGATATATCCATCCGAT [Gap-NCP-1.5] | 149 | –
ATCGGATGTATATATCTGACACGTGCCTGGAGACTAGGGAGTAATCCCCTTGGCGGTTAAAACGCGGGGGACAGCGCGTACGTGCGTTTAAGCGGTGCTAGAGCTGTCTACGACCAATTGAGCGGCCTCGGCACCGGGATTCTCGAT / ATCGAGAATCCCGGTGCCGAGGCCGCTCAATTGGTCGTAGACAGCTCTAGCACCGCTTAAACGCACGTACGCGCTGTCCCCCGCGTTTTAACCGCCAAGGGGATTACTCCCTAGTCTCCAGGCACGT / TCAGATATATCCATCCGAT [Gap-NCP-5.5] | 51 | –
ATCGGATGTATATATCTGACACGTGCCTGGAGACTAGGGAGTAATCCCCTTGGCGGTTAAAACGCGGGGGACAGCGCGTACGTGCGTTTAAGCGGTGCTAGAGCTGTCTACGACCAATTGAGCGGCCTCGGCACCGGGATTCTCGAT / ATCGAGAATCCCGGTGCCGAGGCCGCTCAATTGGTCGTAGACAGCTCTAGCACCGCTTAAACGCACGTACGCGCTGTCCCCCGCGTTTTAACCGCCAAGGGGATTACTCCCTAG / CTCCAGGCACGTGTCAGATATATCCATCCGAT [Gap-NCP-4.5+3] | 115 | –
ATCGGATGTATATATCTGACACGTGCCTGGAGACTAGGGAGTAATCCCCTTGGCGGTTAAAACGCGGGGGACAGCGCGTACGTGCGTTTAAGCGGTGCTAGAGCTGTCTACGACCAATTGAGCGGCCTCGGCACCGGGATTCTCGAT / ATCGAGAATCCCGGTGCCGAGGCCGCTCAATTGGTCGTAGACAGCTCTAGCACCGCTTAAACGCACGTACGCGCTGTCCCCCGCGTTTTAACCGCCAAGGGGATTA / TCCCTAGTCTCCAGGCACGTGTCAGATATATCCATCCGAT [Gap-NCP-3.5] | 141 | –
ATCGGATGTATATATCTGACACGTGCCTGGAGACTAGGGAGTAATCCCCTTGGCGGTTAAAACGCGGGGGACAGCGCGTACGTGCGTTTAAGCGGTGCTAGAGCTGTCTACGACCAATTGAGCGGCCTCGGCACCGGGATTCTCGAT / ATCGAGAATCCCGGTGCCGAGGCCGCTCAATTGGTCGTAGACAGCTCTAGCACCGCTTAAACGCACGTACGCGCTGTCCCCCGCGTTTTAACCGCCAAGGGGATTACTCCCTAGT / TCCAGGCACGTGTCAGATATATCCATCCGAT [Gap-NCP-4.5+2] | 137 | –
ATCGGATGTATATATCTGACACGTGCCTGGAGACTAGGGAGTAATCCCCTTGGCGGTTAAAACGCGGGGGACAGCGCGTACGTGCGTTTAAGCGGTGCTAGAGCTGTCTACGACCAATTGAGCGGCCTCGGCACCGGGATTCTCGAT (double strand) [ND-NCP] | – | Kd [2]: 451 nM; Kd [1]: 217 nM
ATCGGATGTATATATCTGACACGTGCCTGGAGACTAGGGAGTAATCCCCTTGGCGGTTAAAACGCGGGGGACAGCGCGTACGTGCGTTTAAGCGGTGCTAGAGCTGTCTACGACCAATTGAGCGGCCTCGGCACCGGGATTCTCGAT / ATCGAGAATCCCGGTGCCGAGGCCGCTCAATTGGTCGTAGACAGCTCTAGCACCGCTTAAACGCACGTACGCGCTGTCCCCCGCGTTTTAACCGC / AAGGGGATTACTCCCTAGTCTCCAGGCACGTGTCAGATATATCCATCCGAT [Gap-NCP-2.5] | 118 | –
ATCGGATGTATATATCTGACACGTGCCTGGAGACTAGGGAGTAATCCCCTTGGCGGTTAAAACGCGGGGGACAGCGCGTACGTGCGTTTAAGCGGTGCTAGAGCTGTCTACGACCAATTGAGCGGCCTCGGCACCGGGATTCTCGAT / ATCGAGAATCCCGGTGCCGAGGCCGCTCAATTGGTCGTAGACAGCTCTAGCACCGCTTAAACGCACGTACGCGCTGTCCCCCGCGTTTTAACCGCCAAGGGGATTACTCCCTAGTCT / CAGGCACGTGTCAGATATATACATCCGAT [Gap-NCP-4.5] | 98 | Kd ([2]; 5'-phosphate on strand 3): 125 nM
